Numbering of substitutions follows the chain as printed. Like-named read-outs stand apart in the source and are kept apart here.

For assay [1], the target named is T1, recombinant MS4A4A soluble polypeptide JS1.
T1 construct: also called JS1.His; loop grafted antigen
Put plainly: ELISA, 1 ug/ml antibody. As to the method:
(§1) Anti-MS4A4A antibodies of the present disclosure were tested for their ability to bind to the different recombinant MS4A4A soluble polypeptides, as described in Example 2, as follows. Nucleic acid encoding the VH and VL domains of humanized anti-MS4A4A antibodies of the present disclosure were cloned into pcDNA3.4 vector which contains either the human IgG1 heavy chain constant domain or human kappa constant domain. The humanized anti-MS4A4A antibodies were expressed in Expi293 cells and were purified by Mab select antibody purification resin (GE Healthcare Life Science, cat#17519902) following the manufacture's protocol. ELISA was performed to measure binding of anti-MS4A4A antibodies of the present disclosure the recombinant MS4A4A soluble polypeptides. 1 μg/ml biotinylated antigens were preincubated on the streptavidin-coated ELISA plates (Thermo Scientific, cat#PI15120) for 1 hour. Plates were washed 3 times, followed by the addition of antibodies (1 μg/ml, 0.33 μg/ml, and 0.11 μg/ml antibodies. Plates were incubated at room temperature with shaking for 1 hr, washed 3 times, then 1/2500 dilution of HRP conjugates goat anti human kappa antibodies added (SigmaAldrich cat#. A7164-1ML).

The target in assay [2] is T2, recombinant MS4A4A soluble polypeptide JS5.
T2 construct: also called JS5.His
In words: ELISA, 1 ug/ml antibody. As to the method: as §1
Background: An ELISA detects its analyte on a solid surface through an enzyme-linked reagent.

Assay [3] has as its target T2, recombinant MS4A4A soluble polypeptide …. Put plainly: ELISA, 0.11 ug/ml antibody. As to the method: as §1
For assay [4] the target is unchanged. In words: ELISA, 0.33 ug/ml antibody. As to the method: as §1
Assay [5] concerns the target T3, human MS4A4A (human, UniProt Q96JQ5 1-239). In words: FACS, U937-huMS4A4A, 5 ug/ml. Here is the method: (§2) Anti-MS4A4A antibodies tested were either mouse IgGs purified from hybridoma supernatant or human IgG1 Fc chimeras produced recombinantly in Expi293 cells. Affinity binding to cells was determined as follows. Briefly, cells were harvested, washed, and labeled with Aqua Live/Dead for viability discrimination. After a wash with PBS, 2×10\hat{ }4 cells were aliquoted per well in 96-well U-bottom plates and incubated with 50 μL of purified anti-MS4A4A antibody at various concentrations (3× dilutions starting at 10 μg/mL) in FACS buffer (PBS+2% FBS+1 mM EDTA). After this primary incubation, the supernatant was removed via centrifugation, washed 2× with 150 μL of ice-cold FACS buffer, and incubated with the appropriate secondary antibody on ice for 15 minutes. Following the secondary antibody incubation, the cells were again washed 2× with ice-cold FACS buffer and resuspended in a final volume of 200 μL of FACS buffer. Flow cytometry analysis was performed on a FACSCanto system (BD Biosciences). Binding data was expressed as Median Fluorescent Intensity (MFI).
(§3) These experiments were performed using anti-MS4A4A antibodies at a concentration of 5 μg/ml and were assayed for cell binding by flow cytometry.

Assay [6] concerns the target T3, human MS4A4A. Put plainly: FACS, U937-huMS4A4A, 5 ug/ml. Here is the method: as §2, §3
This is another data set of the same source. In general terms: In flow cytometry, cells or beads pass a laser one at a time.

In assay [7] the target is T2, recombinant MS4A4A soluble polypeptide …. Put plainly: ELISA, 0.4 ug/ml antibody.
Assay [8] deals with T4, FcγRIIa receptor (H131 variant) (UniProt P12318 34-317, limits assumed).
T4 sequence (looked up): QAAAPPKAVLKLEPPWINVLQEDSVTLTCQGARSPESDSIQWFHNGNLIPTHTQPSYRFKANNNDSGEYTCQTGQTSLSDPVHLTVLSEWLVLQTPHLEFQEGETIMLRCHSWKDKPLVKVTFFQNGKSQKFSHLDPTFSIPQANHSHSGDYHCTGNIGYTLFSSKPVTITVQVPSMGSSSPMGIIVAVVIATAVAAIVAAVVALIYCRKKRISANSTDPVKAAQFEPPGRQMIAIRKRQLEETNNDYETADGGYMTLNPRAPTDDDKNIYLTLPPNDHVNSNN
In words: cell-based or functional assay.

Assay [9] concerns the target FcγRIIIa receptor (V158 variant) (UniProt P08637 17-254). Put plainly: cell-based or functional assay.

Chain of FcγRIIIa receptor (V158 variant) (P08637 other isoform, or with tags, fused parts or gaps mutant limits assumed): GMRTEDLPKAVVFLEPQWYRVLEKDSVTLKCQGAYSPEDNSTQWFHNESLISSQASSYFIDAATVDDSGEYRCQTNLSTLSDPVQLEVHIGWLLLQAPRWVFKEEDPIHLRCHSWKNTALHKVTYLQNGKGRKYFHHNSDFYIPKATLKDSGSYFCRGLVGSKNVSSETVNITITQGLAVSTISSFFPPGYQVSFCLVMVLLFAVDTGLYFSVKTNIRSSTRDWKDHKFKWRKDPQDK

B1: anti-MS4A4A antibody 4A-302 (antibody, human IgG1, V domains shown)
VH: QVQLVQSGAEVKKPGASVKVSCKASGYTFTNYWMQWVRQAPGQGLEWMGATHPGHGDTRYAQKFQGRVTMTRDTSTSTVYMELSSLRSEDTAVYYCAREEVYYGFRSYWYFDVWGRGTLVTVSS
VL: EIVLTQSPATLSLSPGERATLSCRASESVDNYGVSFMNWYQQKPGQAPRLLIYGASNQGSGIPARFSGSGSGTDFTLTISSLEPEDFAVYYCQQSKEVPPTFGGGTKVEIK
notes: human IgG1/kappa
Turning to B1, the OD450 in assay [1] worked out at 0.127. Besides, the figures for the “ELISA OD” value in assay [2], in assay [3] and in [4] were 0.128, 0.091 and 0.103, respectively. In addition, the MFI with human MS4A4A [5] amounted to 113; with human MS4A4A [6] it was 24400.

B2: anti-MS4A4A antibody 4A-312 (antibody, V domains shown)
VH: B1 VH with Y102D
VL: B1 VL with G59Q
notes: full human IgG
Consider B2, for which the figures for the “ELISA OD” value in [2], in assay [3] and in assay [4] were 0.184, 0.097 and 0.11, respectively. In the assay with human MS4A4A [6], this molecule gave an MFI of 17700.

B3: anti-MS4A4A antibody 4A-314 (antibody, V domains shown)
VH: B1 VH with A50T, H52L
VL: B1 VL with F36R
notes: full human IgG
Take B3: the “ELISA OD” value in assay [2] was found to be 1.14; in assay [3] it was 0.399; in assay [4] it was 0.682. The molecule also had an MFI with human MS4A4A [6] of 15300.

B4: anti-MS4A4A antibody 4A-350 (antibody, V domains shown)
VH: QVQLVQSGSELKKPGASVKVSCKASGYIFTSYGLSWVRQAPGQGLEWMGWINTYSGVPTYAQGFTGRFVFSLDTSVSTAYLQISSLKAEDTAVYYCARTLADYWGQGTLVTVSS
VL: DVVMTQSPLSLPVTLGQPASISCKSSQSLLYSDGKTYLSWFQQRPGQSPRRLIYLVSKLDSGVPDRFSGSGSGTDFTLKISRVEAEDVGVYYCWQGIDFHQTFGGGTKVEIK
notes: full human IgG
As for B4, in assay [7], the OD450 is 0.939. Further, the MFI with human MS4A4A [6] came out at 11600.

B5: anti-MS4A4A antibody 4A-376 (antibody, V domains shown)
VH: B4 VH with T99S, L100M
VL: B4 VL with Q27R
notes: full human IgG
B5: the “ELISA OD” value in assay [2] was 1.04; in assay [3], 0.83; in assay [4], 1.03. The OD450 in assay [7] came out at 0.977. Also, in the assay with human MS4A4A [6], the MFI was found to be 16700.

B6: anti-MS4A4A antibody 4A-362 (antibody, V domains shown)
VH: B4 VH
VL: B4 VL with K58R
notes: full human IgG
Regarding B6, the OD450 in assay [7] amounted to 0.908. In the assay with human MS4A4A [6], this molecule showed an MFI of 10000.

B7: anti-MS4A4A antibody 4A-360 (antibody, V domains shown)
VH: B4 VH
VL: B4 VL with S26G, K58R
notes: full human IgG
As to B7, the OD450 in [7] came out at 0.797. Also, the MFI in the assay with human MS4A4A [6] came out at 10300.

B8: anti-MS4A4A antibody 4A-351 (antibody, V domains shown)
VH: B4 VH
VL: B4 VL with Q27R
notes: full human IgG
Regarding B8, the “ELISA OD” value in assay [2] is 0.953; in assay [3] it was 0.816; in [4], 0.898. Also, the OD450 in [7] was determined as 0.99. This molecule also gave an MFI in the assay with human MS4A4A [6] of 12200.

B9: anti-MS4A4A antibody 4A-358 (antibody, V domains shown)
VH: B4 VH
VL: B4 VL with D98R
notes: full human IgG
In the case of B9, in assay [7], the OD450 amounted to 0.901. Moreover, the MFI in the assay with human MS4A4A [6] was determined as 12100.

B10: anti-MS4A4A antibody 4A-380 (antibody, V domains shown)
VH: B4 VH with T99S, L100M
VL: B4 VL with Q27R, D33S
Consider B10, for which the “ELISA OD” value in assay [2] is 0.981; in assay [3] it was 0.654; in assay [4] it was 0.916. In the assay with human MS4A4A [6], this molecule registered an MFI of 11800.

B11: anti-MS4A4A antibody 4A-381 (antibody, V domains shown)
VH: B4 VH with T99S, L100M
VL: B4 VL with Q27R, D33Q
On to B11, for which the “ELISA OD” value in assay [2] was determined as 1; in assay [3], 0.685; in assay [4], 0.94. The molecule also gave an MFI in the assay with human MS4A4A [6] of 12600.

B12: anti-MS4A4A antibody 4A-369 (antibody, V domains shown)
VH: B4 VH with I28T, V37I, L100M, A101V
VL: B4 VL with D98R
notes: full human IgG
Take B12: the OD450 in assay [7] came out at 0.852. The MFI with human MS4A4A [6] was 10100.

B13: anti-MS4A4A antibody 4A-332 (antibody, human IgG1, V domains shown)
VH: B4 VH with T99S, A101V
VL: B4 VL
notes: humanized 4A-21; human IgG1/kappa
On to B13, for which the values for the OD450 in assay [1] and in [7] were 1.91 and 0.821, respectively. The “ELISA OD” value in [2] was found to be 0.997; in assay [3], 0.677; in assay [4], 0.851. The MFI with human MS4A4A [5] is 324; in the assay with human MS4A4A [6], 8820.

B14: anti-MS4A4A antibody 4A-373 (antibody, V domains shown)
VH: B4 VH with A101V
VL: B4 VL with Q27R
notes: full human IgG
Regarding B14, in assay [7], the OD450 was determined as 0.907. Further, the MFI with human MS4A4A [6] came to 11900.

B15: anti-MS4A4A antibody 4A-313 wildtype (WT) huIgG1 (antibody)
heavy: not shown
light: EIVLTQSPATLSLSPGERATLSCRASESVDNYGVSRMNWYQQKPGQAPRLLIYGASNQGSGIPARFSGSGSGTDFTLTISSLEPEDFAVYYCQQSKEVPPTFGGGTKVEIKRTVAAPSVFIFPPSDEQLKSGTASVVCLLNNFYPREAKVQWKVDNALQSGNSQESVTEQDSKDSTYSLSSTLTLSKADYEKHKVYACEVTHQGLSSPVTKSFNRGEC
notes: also called 4A-313 WT huIgG1; 4A-313.WT
Regarding B15, in assay [8], the “luminescence, ADCP reporter, 3.048316 ng/mL” value was determined as 48; the “luminescence, ADCP reporter, 9.144947 ng/mL” value was 54; the “luminescence, ADCP reporter, 27.43484 ng/mL” value is 80; the “luminescence, ADCP reporter, 82.30453 ng/mL” value amounted to 64. Moreover, in [8], the “luminescence, ADCP reporter, 246.9136 ng/mL” value was 98; the “luminescence, ADCP reporter, 740.7407 ng/mL” value is 85; the “luminescence, ADCP reporter, 2,222.222 ng/mL” value is 128; the “luminescence, ADCP reporter, 6,666.667 ng/mL” value was 403. Further, in assay [8], the “luminescence, ADCP reporter, 20,000 ng/mL” value was 455. For the same molecule, in assay [9], the “luminescence, ADCC reporter, 3.048316 ng/mL” value came to 346; the “luminescence, ADCC reporter, 9.144947 ng/mL” value is 367; the “luminescence, ADCC reporter, 27.43484 ng/mL” value was determined as 473; the “luminescence, ADCC reporter, 82.30453 ng/mL” value worked out at 839. In assay [9], the “luminescence, ADCC reporter, 246.9136 ng/mL” value was found to be 2060; the “luminescence, ADCC reporter, 740.7407 ng/mL” value came to 4350; the “luminescence, ADCC reporter, 2,222.222 ng/mL” value was 5130; the “luminescence, ADCC reporter, 6,666.667 ng/mL” value worked out at 4890. In assay [9], the “luminescence, ADCC reporter, 20,000 ng/mL” value is 4400. Besides, the “ELISA OD” value in assay [2] worked out at 1.26. Also, in assay [3], the “ELISA OD” value was found to be 0.741. Besides, in [4], the “ELISA OD” value is 1.05. In the assay with human MS4A4A [6], the MFI came to 41800.

The values are drawn from patent US20210079074A1 (Alector, published 2021).
